According to patent publication US20210253718A1, “FRIZZLED5 PROTEIN-BINDING AGENTS” (Modmab Therapeutics Corporation, priority 2016, published 2021):
Where a chain is given by its changes, count along the chain named.

T1: FZD3 CRD (Homo sapiens, UniProt Q9NPG1)
T1 construct: CRD of FZD1, FZD2, FZD3, FZD4, FZD5, FZD6, FZD7, FZD8, FZD9 or FZD10; GPI anchor signal (C); expressed in transfected cells; host or cells: CHO cells, lentiviral pLenti-puro
T1 sequence (Q9NPG1 23-136 limits assumed): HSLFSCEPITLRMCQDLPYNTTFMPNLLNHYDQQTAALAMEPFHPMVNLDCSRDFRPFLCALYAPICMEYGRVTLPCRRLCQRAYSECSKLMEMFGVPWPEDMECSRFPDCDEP

T2: FZD6 CRD (Homo sapiens, UniProt O60353)
T2 construct: S20-P146; GPI anchor signal (C); expressed in transfected cells; host or cells: CHO cells, lentiviral pLenti-puro
T2 sequence (O60353 20-146): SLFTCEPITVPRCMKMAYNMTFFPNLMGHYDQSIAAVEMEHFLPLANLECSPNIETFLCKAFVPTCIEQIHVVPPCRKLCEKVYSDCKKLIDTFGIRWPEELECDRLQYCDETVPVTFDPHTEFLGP

T3: FZD10 CRD (Homo sapiens, UniProt Q9ULW2)
T3 construct: 30-156; GPI anchor signal (C); expressed in transfected cells; host or cells: CHO cells, lentiviral pLenti-puro
T3 sequence (Q9ULW2 30-156): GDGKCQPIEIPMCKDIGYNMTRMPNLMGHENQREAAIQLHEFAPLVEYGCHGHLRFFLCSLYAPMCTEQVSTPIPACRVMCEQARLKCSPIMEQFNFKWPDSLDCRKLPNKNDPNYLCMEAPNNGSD

T4: FZD8 CRD (Homo sapiens, UniProt Q9H461)
T4 construct: K31-D155; GPI anchor signal (C); expressed in transfected cells; host or cells: CHO cells, lentiviral pLenti-puro
T4 sequence (Q9H461 31-155): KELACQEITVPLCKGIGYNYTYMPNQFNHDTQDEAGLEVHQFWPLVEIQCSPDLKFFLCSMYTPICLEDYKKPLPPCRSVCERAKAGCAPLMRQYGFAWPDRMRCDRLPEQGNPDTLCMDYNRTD

T5: FZD4 CRD (Homo sapiens, UniProt Q9ULV1)
T5 construct: E42-V167; GPI anchor signal (C); expressed in transfected cells; host or cells: CHO cells, lentiviral pLenti-puro
T5 sequence (Q9ULV1 42-167): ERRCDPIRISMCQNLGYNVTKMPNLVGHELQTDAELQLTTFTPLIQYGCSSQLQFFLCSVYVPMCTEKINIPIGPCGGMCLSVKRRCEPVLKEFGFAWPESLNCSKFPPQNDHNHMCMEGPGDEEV

B1: Fab-2916: anti-FZD5 Fab with antibody variable region Fv-2916; CDR SEQ ID NOs: 35, 36, 55, 94, 131, 167 (antibody, V domains shown)
VH: EVQLVESGGGLVQPGGSLRLSCAASGFNISYSSIHWVRQAPGKGLEWVASIYPSYSYTYYADSVKGRFTISADTSKNTAYLQMNSLRAEDTAVYYCARYGYYGMDYWGQGTLVTVSS
VL: DIQMTQSPSSLSASVGDRVTITCRASQSVSSAVAWYQQKPGKAPKLLIYSASSLYSGVPSRFSGSRSGTDFTLTISSLQPEDFATYYCQQWYHYPYLITFGQGTKVEIK
B2: Fab-2914: anti-FZD5 Fab with antibody variable region Fv-2914; CDR SEQ ID NOs: 35, 36, 53, 92, 129, 162 (antibody, V domains shown)
VH: EVQLVESGGGLVQPGGSLRLSCAASGFNIYYSYMHWVRQAPGKGLEWVASIYPSSSSTSYADSVKGRFTISADTSKNTAYLQMNSLRAEDTAVYYCARGAMDYWGQGTLVTVSS
VL: DIQMTQSPSSLSASVGDRVTITCRASQSVSSAVAWYQQKPGKAPKLLIYSASSLYSGVPSRFSGSRSGTDFTLTISSLQPEDFATYYCQQWYYGSLITFGQGTKVEIK
B3: Fab-2915: anti-FZD5 Fab with antibody variable region Fv-2915; CDR SEQ ID NOs: 35, 36, 54, 93, 130, 166 (antibody, V domains shown)
VH: EVQLVESGGGLVQPGGSLRLSCAASGFNIYYYSMHWVRQAPGKGLEWVASIYSSYGYTSYADSVKGRFTISADTSKNTAYLQMNSLRAEDTAVYYCARGYHYYPYYSGLDYWGQGTLVTVSS
VL: B2 VL with W91A, G94H
B4: Fab-2918: anti-FZD5 Fab with antibody variable region Fv-2918; CDR SEQ ID NOs: 35, 36, 57, 96, 133, 169 (antibody, V domains shown)
VH: B1 VH with I29L, P53S, Y57S, Y59S, Y99F, Y102W, G103A, M104I
VL: B2 VL with W91A, Y92F, Y93G, G94A, I97F
B5: Fab-2919: anti-FZD5 Fab with antibody variable region Fv-2919; CDR SEQ ID NOs: 35, 36, 58, 97, 134, 155 (antibody, V domains shown)
VH: B2 VH with Y30S, M34I, P53S, S56G, M101I
VL: DIQMTQSPSSLSASVGDRVTITCRASQSVSSAVAWYQQKPGKAPKLLIYSASSLYSGVPSRFSGSRSGTDFTLTISSLQPEDFATYYCQQWYSSGHVLITFGQGTKVEIK
B6: Fab-2921: anti-FZD5 Fab with antibody variable region Fv-2921; CDR SEQ ID NOs: 35, 36, 60, 98, 136, 162 (antibody, V domains shown)
VH: B2 VH with Y30S, S32Y, M34I, S56G
VL: B2 VL with Y93A
B7: Fab-2920: anti-FZD5 Fab with antibody variable region Fv-2920; CDR SEQ ID NOs: 35, 36, 59, 98, 135, 170 (antibody, V domains shown)
VH: B2 VH with Y30S, S32Y, M34I, S56G, A100G
VL: B2 VL with Y92F, Y93A, S95A

The molecules below were run against T1, FZD3 CRD (assay: Immunofluorescence of anti-FZD5 Fab binding to CHO cells overexpressing Frizzled CRD). Conditions: not given.
Design: key: −: no binding; +: very weak binder; ++: weak binder; +++: good binder; ++++: very good binder
Procedure, shortened: (§1)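 CHO lines each stably expressing one human Frizzled CRD as a myc-tagged, GPI-anchored cell-surface cassette (FZD_CRD-MYC-GPI, lentiviral pLenti-puro) were probed with anti-FZD5 Fabs. Binding was read by immunofluorescence, alongside flow cytometry, across the 10-member panel.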

Row | Immunofluorescence binding, Frizzled CRD overexpressed on CHO cells: FZD3 | Molecule
1 | − | B1
2 | − | B2
3 | − | B3
4 | − | B4
5 | − | B5
6 | − | B6
7 | − | B7

What follows are molecules tested against T2, FZD6 CRD in the same assay as above. Conditions: not given.
Design: key: −: no binding; +: very weak binder; ++: weak binder; +++: good binder; ++++: very good binder
Procedure, shortened: as §1

Row | Immunofluorescence binding, Frizzled CRD overexpressed on CHO cells: FZD6 | Molecule
8 | − | B1
9 | − | B2
10 | − | B3
11 | − | B4
12 | − | B5
13 | − | B6
14 | − | B7

These molecules were tested against T6, FZD7 CRD (Homo sapiens, UniProt O75084) in the same assay as above. Conditions: not given.
T6 construct: D45-S169; GPI anchor signal (C); expressed in transfected cells; host or cells: CHO cells, lentiviral pLenti-puro
Design: key: −: no binding; +: very weak binder; ++: weak binder; +++: good binder; ++++: very good binder
Procedure, shortened: as §1

Row | Immunofluorescence binding, Frizzled CRD overexpressed on CHO cells: FZD7 | Molecule
15 | ++++ | B1
16 | ++++ | B2
17 | ++++ | B3
18 | + | B4
19 | − | B5
20 | − | B6
21 | − | B7

These molecules were tested against T3, FZD10 CRD in the same assay as above. Conditions: not given.
Design: key: −: no binding; +: very weak binder; ++: weak binder; +++: good binder; ++++: very good binder
Procedure, shortened: as §1

Row | Immunofluorescence binding, Frizzled CRD overexpressed on CHO cells: FZD10 | Molecule
22 | − | B1
23 | − | B2
24 | − | B3
25 | − | B4
26 | − | B5
27 | − | B6
28 | − | B7

The molecules below were run against T4, FZD8 CRD in the same assay as above. Conditions: not given.
Design: key: −: no binding; +: very weak binder; ++: weak binder; +++: good binder; ++++: very good binder
Procedure, shortened: as §1

Row | Immunofluorescence binding, Frizzled CRD overexpressed on CHO cells: FZD8 | Molecule
29 | + | B1
30 | ++ | B2
31 | + | B3
32 | + | B4
33 | ++ | B5
34 | + | B6
35 | + | B7

What follows are molecules tested against T5, FZD4 CRD in the same assay as above. Conditions: not given.
Design: key: −: no binding; +: very weak binder; ++: weak binder; +++: good binder; ++++: very good binder
Procedure, shortened: as §1

Row | Immunofluorescence binding, Frizzled CRD overexpressed on CHO cells: FZD4 | Molecule
36 | − | B1
37 | − | B2
38 | − | B3
39 | − | B4
40 | − | B5
41 | − | B6
42 | − | B7

These molecules were tested against T7, FZD2 CRD (Homo sapiens, UniProt Q14332) in the same assay as above. Conditions: not given.
T7 construct: D35-P161; GPI anchor signal (C); expressed in transfected cells; host or cells: CHO cells, lentiviral pLenti-puro
Design: key: −: no binding; +: very weak binder; ++: weak binder; +++: good binder; ++++: very good binder
Procedure, shortened: as §1

Row | Immunofluorescence binding, Frizzled CRD overexpressed on CHO cells: FZD2 | Molecule
43 | ++++ | B1
44 | +++ | B2
45 | +++ | B3
46 | − | B4
47 | − | B5
48 | − | B6
49 | − | B7

What follows are molecules tested on ASPC-1 cells (assay: Effect of anti-FZD5 Fabs on proliferation of pancreatic cancer cell lines (percent growth inhibition)). Conditions: Fab 2 μg/ml.
Type: cell-based, human

Row | Molecule | percent growth inhibition, ASPC-1 2 μg/ml [%]
50 | B1 | 44.03
51 | B2 | 16.76
52 | B3 | 5.51
53 | B4 | 44.67
54 | B5 | 30.04
55 | B6 | 43.20
56 | B7 | 33.66

What follows are molecules tested on RWP1 cells in the same assay as above. Conditions: Fab 2 μg/ml.
Type: cell-based, human

Row | Molecule | percent growth inhibition, RWP1 2 μg/ml [%]
57 | B1 | 1.68
58 | B2 | 68.03
59 | B3 | 48.66
60 | B4 | 3.49
61 | B5 | 7.36
62 | B6 | −4.47
63 | B7 | −16.26
